Data as given in publication doi:10.1101/2023.07.17.549284.

Target: ndufs4^-/- complex I (N-module plus QP subcomplex) (mouse (endogenous in heart and kidney)) (UniProt Q91YT0)
Experiment: cryo-EM structure

Sequence of assembly factor NDUFAF2 (natural protein) (Q59J78 whole entry): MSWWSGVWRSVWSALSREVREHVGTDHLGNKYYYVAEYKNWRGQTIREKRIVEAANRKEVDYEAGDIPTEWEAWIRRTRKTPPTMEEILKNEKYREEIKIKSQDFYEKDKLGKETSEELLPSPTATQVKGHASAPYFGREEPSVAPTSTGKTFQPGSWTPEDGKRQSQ

For “assembly factor NDUFAF2 (natural protein)”, the percent of particles that contain NDUFAF2 was 14%.
